Test results from US20190055314A1 (ADAGENE, published 2019).

T1: CD95
T1 chain: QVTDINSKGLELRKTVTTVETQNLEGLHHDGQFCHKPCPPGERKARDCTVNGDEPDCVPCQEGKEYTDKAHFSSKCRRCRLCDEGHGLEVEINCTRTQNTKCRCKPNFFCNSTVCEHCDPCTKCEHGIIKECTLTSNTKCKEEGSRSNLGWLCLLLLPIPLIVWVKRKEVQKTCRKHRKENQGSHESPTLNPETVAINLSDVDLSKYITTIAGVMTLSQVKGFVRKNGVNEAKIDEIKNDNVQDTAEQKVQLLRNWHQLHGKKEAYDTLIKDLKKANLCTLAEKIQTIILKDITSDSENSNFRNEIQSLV

T2: CD120a
T2 chain: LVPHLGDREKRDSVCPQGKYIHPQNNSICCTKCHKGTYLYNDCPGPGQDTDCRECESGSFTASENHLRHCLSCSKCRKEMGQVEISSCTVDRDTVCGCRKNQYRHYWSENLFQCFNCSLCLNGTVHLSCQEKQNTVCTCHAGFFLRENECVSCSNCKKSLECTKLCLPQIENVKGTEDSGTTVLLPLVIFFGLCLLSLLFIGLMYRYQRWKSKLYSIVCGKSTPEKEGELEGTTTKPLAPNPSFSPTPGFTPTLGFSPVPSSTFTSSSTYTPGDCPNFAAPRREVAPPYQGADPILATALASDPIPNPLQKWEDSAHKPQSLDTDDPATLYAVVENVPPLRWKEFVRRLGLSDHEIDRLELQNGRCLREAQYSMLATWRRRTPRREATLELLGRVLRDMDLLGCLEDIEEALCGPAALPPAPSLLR

T3: OX40 overexpressed on HEK293F cells (UniProt P43489 29-277, limits assumed)
T3 construct: whole, on cells
T3 sequence (looked up): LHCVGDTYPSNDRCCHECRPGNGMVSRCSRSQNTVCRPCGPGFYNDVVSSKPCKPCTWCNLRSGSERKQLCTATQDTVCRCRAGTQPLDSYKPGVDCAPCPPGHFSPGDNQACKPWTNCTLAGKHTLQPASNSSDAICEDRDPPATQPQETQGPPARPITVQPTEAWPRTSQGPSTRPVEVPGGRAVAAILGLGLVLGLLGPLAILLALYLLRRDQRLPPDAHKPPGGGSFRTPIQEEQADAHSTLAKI

T4: GITR overexpressed on HEK293F cells (UniProt Q9Y5U5 26-241, limits assumed)
T4 construct: whole, on cells
T4 sequence (looked up): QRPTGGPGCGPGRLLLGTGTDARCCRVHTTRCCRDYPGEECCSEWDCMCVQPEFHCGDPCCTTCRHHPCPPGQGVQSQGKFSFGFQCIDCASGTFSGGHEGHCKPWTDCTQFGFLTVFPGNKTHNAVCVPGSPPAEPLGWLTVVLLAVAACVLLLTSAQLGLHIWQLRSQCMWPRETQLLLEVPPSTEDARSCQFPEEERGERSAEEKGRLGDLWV

T5: CD27 overexpressed on HEK293F cells (UniProt P26842 20-260, limits assumed)
T5 construct: whole, on cells
T5 sequence (looked up): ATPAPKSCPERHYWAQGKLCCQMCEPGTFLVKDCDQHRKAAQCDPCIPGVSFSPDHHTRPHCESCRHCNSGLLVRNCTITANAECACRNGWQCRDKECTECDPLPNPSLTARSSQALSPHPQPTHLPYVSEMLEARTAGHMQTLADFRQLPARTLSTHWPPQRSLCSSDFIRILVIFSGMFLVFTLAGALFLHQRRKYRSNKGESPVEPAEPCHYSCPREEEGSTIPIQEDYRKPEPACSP

T6: mouse CD137 protein (Biacore) (mouse, UniProt P20334 24-178, limits assumed)
T6 construct: Construct used as SPR analyte not described
T6 sequence: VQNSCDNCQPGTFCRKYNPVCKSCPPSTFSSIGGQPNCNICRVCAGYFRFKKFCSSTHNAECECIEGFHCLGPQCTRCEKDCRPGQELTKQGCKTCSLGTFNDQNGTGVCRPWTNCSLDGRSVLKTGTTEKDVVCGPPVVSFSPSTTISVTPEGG

T7: full-length mouse CD137 on the cell surface (mouse, UniProt P20334 24-178)
T7 sequence: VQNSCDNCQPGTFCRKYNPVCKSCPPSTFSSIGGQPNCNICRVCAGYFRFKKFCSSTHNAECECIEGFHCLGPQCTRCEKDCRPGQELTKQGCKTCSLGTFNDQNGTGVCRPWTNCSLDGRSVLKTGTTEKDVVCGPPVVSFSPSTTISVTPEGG


How the values were obtained:
CD95 = molecular target: T1, CD95; assay: flow cytometry, HEK293F cells expressing the receptor [Cont.]
CD120a = molecular target: T2, CD120a; assay: as above
[1] = molecular target: T3, OX40 overexpressed on HEK293F cells; assay: flow cytometry, HEK293F cells expressing the receptor, antibody 100 nM [Cont.]
[2] = molecular target: T8, CD40 overexpressed on HEK293F cells (UniProt P25942 21-277, limits assumed); assay: as above
T8 construct: whole, on cells
T8 sequence (P25942 21-277 limits assumed): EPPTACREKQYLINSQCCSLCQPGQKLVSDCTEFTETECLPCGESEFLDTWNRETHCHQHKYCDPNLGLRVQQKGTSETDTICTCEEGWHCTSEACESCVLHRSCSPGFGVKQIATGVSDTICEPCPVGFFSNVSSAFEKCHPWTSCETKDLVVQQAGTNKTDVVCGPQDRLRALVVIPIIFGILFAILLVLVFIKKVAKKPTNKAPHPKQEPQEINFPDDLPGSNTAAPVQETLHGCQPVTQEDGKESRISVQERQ

[3] = molecular target: T4, GITR overexpressed on HEK293F cells; assay: as above
[4] = molecular target: T5, CD27 overexpressed on HEK293F cells; assay: as above
Hu_T35A = molecular target: T9, Hu_T35A (human, UniProt Q07011 18-255); assay: flow cytometry, HEK293F
T9 construct: On HEK293F; also called human CD137 T35A
T9 sequence (Q07011 18-255 T35A): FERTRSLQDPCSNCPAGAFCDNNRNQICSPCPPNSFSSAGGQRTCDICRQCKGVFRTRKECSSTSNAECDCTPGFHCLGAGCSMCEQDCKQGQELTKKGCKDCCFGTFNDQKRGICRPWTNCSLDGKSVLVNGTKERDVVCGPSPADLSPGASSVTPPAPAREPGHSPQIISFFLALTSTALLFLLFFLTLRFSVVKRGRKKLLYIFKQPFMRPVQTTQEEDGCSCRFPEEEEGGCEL

Hu_F53A = molecular target: T10, Hu_F53A (human, UniProt Q07011 18-255); assay: flow cytometry, HEK293F
T10 construct: On HEK293F; also called human CD137 F53A
T10 sequence (Q07011 18-255 F53A): as the sequence (Q07011 18-255 T35A) above, with A18T, F36A counted along it

Hu_R66A = molecular target: T11, Hu_R66A (human, UniProt Q07011 18-255); assay: flow cytometry, HEK293F
T11 construct: On HEK293F; also called human CD137 R66A

Hu_N83A = molecular target: T12, Hu_N83A (human, UniProt Q07011 18-255); assay: flow cytometry, HEK293F
T12 construct: On HEK293F; also called human CD137 N83A
T12 sequence (Q07011 18-255 N83A): as the sequence (Q07011 18-255 T35A) above, with A18T, N66A counted along it

[5] = molecular target: T13, human CD137-His6 (Sino Biological #10041-H08H) (human, UniProt Q07011 24-186); assay: SPR Biacore, IgG captured
T13 construct: Bought; also called human CD137 protein; not shown: His6 tag

[6] = molecular target: T6, mouse CD137 protein (Biacore); assay: SPR Biacore, IgG captured
[7] = molecular target: T7, full-length mouse CD137 on the cell …; assay: cell-based or functional assay
[8] = molecular target: T3, OX40 overexpressed on HEK293F cells; assay: flow cytometry, HEK293F cells expressing the receptor, antibody 100 nM
[9] = molecular target: T5, CD27 overexpressed on HEK293F cells; assay: as above

Mean [1] | Mean [2] | Mean [3] | Mean [4] | binding result (Hu_T35A) | binding result (Hu_F53A) | binding result (Hu_R66A) | binding result (Hu_N83A) | Kd [5] [nM] | Kd [6] [nM] | NFκB luciferase reporter, 293T cells with mouse CD137: EC50 (read off the curve) [7] [nM] | Mean [8] | Mean [9] | Binder | binding result (CD95) | binding result (CD120a)
6780 | 7260 | 5980 | 13200 | – | – | – | – | – | – | – | – | – | AG10059 (antibody, human IgG4 S228P, kappa, V domains shown) VH: EVQLVESGGGLVQPGGSLRLSCAASGYSITSGHYWAWIRQAPGKGLEWVSSISGYGSTTYYADSVKGRFTISRDNSKNTLYLQLNSLRAEDTAVYYCARGGSDAVLGDWFAYWGQGTLVTVSS VL: DIQLTQSPSSLSASVGDRVTITCRASQGIGSFLAWYQQKPGKAPKLLIYDASNLETGVPSRFSGSGSGTDFTLTISSLQPEDFATYYCQQGYYLWTFGQGTKVEIKR | no binding (tested: 100 nM (text paragraph 226)) | no binding (tested: 100 nM (text paragraph 226))
– | – | – | – | no binding | no binding | no binding | no binding | 5.9 | 15.2 | ~3 | 189000 | 6660 | AG10058 (antibody, human IgG4 S228P, kappa, V domains shown) VH: EVQLVESGGGLVQPGGSLRLSCAASGFSLSTSGVGVGWIRQAPGKGLEWLALIDWDDDKYYSPSLKSRLTISRDNSKNTLYLQLNSLRAEDTAVYYCARGGSDTVLGDWFAYWGQGTLVTVSS VL: DIQLTQSPSSLSASVGDRVTITCRASQSVSPYLAWYQQKPGKAPKLLIYDASSLESGVPSRFSGSGSGTDFTLTISSLQPEDFATYYCQQGYSLWTFGQGTKVEIKR | – | –
